Earlier results in PMC2812830.

Target: LAT pY191 phosphopeptide pY191 peptide (Homo sapiens) (UniProt O43561)
Assay: ITC

## Grb2 (from UniProt P62993)
  Kd: 286 nM
